Assay results taken from PMC9352680, “A comprehensive thermodynamic model for RNA binding by the Saccharomyces cerevisiae Pumilio protein PUF4”.

The binders below were run against T1, PUF4 RNA-binding domain (Saccharomyces cerevisiae, UniProt P25339 537-888) (assay: Mg; RNA-MaP; 20 mM Na-HEPES pH 7.4, 30 mM KOAc, 0.75 mM MgCl2, 0.1% Tween-20, 5% glycerol, 0.1 mg/mL BSA, 2 mM DTT; 25 C; 0.0125-409.6 nM protein). Details: tags: N-His6-TEV cleaved; C-SNAP kept, Cy3B-labelled; label: tethered on chip by stalled RNA polymerase.
T1 sequence: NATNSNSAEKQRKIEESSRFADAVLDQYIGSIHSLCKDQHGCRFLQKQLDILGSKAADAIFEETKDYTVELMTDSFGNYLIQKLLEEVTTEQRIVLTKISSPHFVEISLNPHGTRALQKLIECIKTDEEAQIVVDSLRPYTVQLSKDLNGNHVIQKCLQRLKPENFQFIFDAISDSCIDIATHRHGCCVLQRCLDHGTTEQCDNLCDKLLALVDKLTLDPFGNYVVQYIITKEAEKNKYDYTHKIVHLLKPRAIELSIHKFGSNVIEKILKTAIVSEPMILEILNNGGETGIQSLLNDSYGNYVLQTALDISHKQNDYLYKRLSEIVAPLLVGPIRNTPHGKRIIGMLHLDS

Row | Binder | Kd
1 | ACAAACUGCAUAAAACAAAC (ssRNA) [Ib_S3_P3E.1_K3.1_C3.1_H3.1_[T3C]_A3.1_F3.1_[T7A]_T3.1] | > 2300 nM
2 | ACAAACCGUAUAGAACAAAC (ssRNA) [Ib_S3_P3E.1_K3.1_C3.1_H3.1_[T1C]_A3.1_F3.1_[T7G]_T3.1] | > 2300 nM
3 | Ib_S2_P5E.1_K5.1_C5.1_H5.1_[G2T]_A5.1_[A7G]_F5.1_T5.1 (ssRNA) RNA: UUUGAUUAAUAUGAUAUCGUUCUUUCUUUUAUUGUUAUUCUUUCUCGAUAUCAUAUUAAUCUUU | > 2300 nM
4 | Ib_S2_P5E.1_K5.1_C5.1_H5.1_[T3C]_A5.1_[T5G]_F5.1_T5.1 (ssRNA) RNA: UUUGAUUAAUAUGAUAUCGUUCUUUCUUGCAGUAUUAUUCUUUCUCGAUAUCAUAUUAAUCUUU | 909 nM
5 | Ia_S2_P5E.1_K5.1_C5.1_H5.1_[G2C]_A5.1_F5.1_T5.1 (ssRNA) RNA: UUUGAUUAAUAUGAUAUCGUUCUUUCUUCUAUUAUUAUUCUUUCUCGAUAUCAUAUUAAUCUUU | 2160 nM
6 | Ic_S2_P5E.1_K5.1_C5.1_H5.1_A5.1_[T5A]_[A7G]_F5.1_T5.1 (ssRNA) RNA: UUUGAUUAAUAUGAUAUCGUUCUUUCUUGUAAUGUUAUUCUUUCUCGAUAUCAUAUUAAUCUUU | 13.1 nM
7 | Ib_S2_P5E.1_K5.1_C5.1_H5.1_A5.1_[T5C]_[T6A]_F5.1_T5.1 (ssRNA) RNA: UUUGAUUAAUAUGAUAUCGUUCUUUCUUGUACAAUUAUUCUUUCUCGAUAUCAUAUUAAUCUUU | 1.95 nM
8 | Ib_S2_P5E.1_K5.1_C5.1_H5.1_[A4T]_A5.1_[T6C]_F5.1_T5.1 (ssRNA) RNA: UUUGAUUAAUAUGAUAUCGUUCUUUCUUGUUUCAUUAUUCUUUCUCGAUAUCAUAUUAAUCUUU | 8.06 nM
9 | Ib_S2_P5E.1_K5.1_C5.1_H5.1_[A4T]_A5.1_[T5C]_F5.1_T5.1 (ssRNA) RNA: UUUGAUUAAUAUGAUAUCGUUCUUUCUUGUUCUAUUAUUCUUUCUCGAUAUCAUAUUAAUCUUU | 11 nM
10 | Ib_S2_P5E.1_K5.1_C5.1_H5.1_[A4C]_A5.1_[T6A]_F5.1_T5.1 (ssRNA) RNA: UUUGAUUAAUAUGAUAUCGUUCUUUCUUGUCUAAUUAUUCUUUCUCGAUAUCAUAUUAAUCUUU | 28.1 nM
11 | Ib_S2_P5E.1_K5.1_C5.1_H5.1_A5.1_[T5C]_[A7T]_F5.1_T5.1 (ssRNA) RNA: UUUGAUUAAUAUGAUAUCGUUCUUUCUUGUACUUUUAUUCUUUCUCGAUAUCAUAUUAAUCUUU | 1.36 nM
12 | Ib_S2_P5E.1_K5.1_C5.1_H5.1_[A4T]_A5.1_[T5G]_F5.1_T5.1 (ssRNA) RNA: UUUGAUUAAUAUGAUAUCGUUCUUUCUUGUUGUAUUAUUCUUUCUCGAUAUCAUAUUAAUCUUU | 6.64 nM
13 | Ib_S2_P5E.1_K5.1_C5.1_H5.1_[A4C]_A5.1_[T5C]_F5.1_T5.1 (ssRNA) RNA: UUUGAUUAAUAUGAUAUCGUUCUUUCUUGUCCUAUUAUUCUUUCUCGAUAUCAUAUUAAUCUUU | 22.6 nM
14 | Ib_S2_P5E.1_K5.1_C5.1_H5.1_[A4G]_A5.1_[T5C]_F5.1_T5.1 (ssRNA) RNA: UUUGAUUAAUAUGAUAUCGUUCUUUCUUGUGCUAUUAUUCUUUCUCGAUAUCAUAUUAAUCUUU | 9.3 nM
15 | Ib_S2_P5E.1_K5.1_C5.1_H5.1_[T3C]_A5.1_[T6C]_F5.1_T5.1 (ssRNA) RNA: UUUGAUUAAUAUGAUAUCGUUCUUUCUUGCAUCAUUAUUCUUUCUCGAUAUCAUAUUAAUCUUU | 531 nM
16 | Ib_S2_P5E.1_K5.1_C5.1_H5.1_[T3C]_A5.1_[A7G]_F5.1_T5.1 (ssRNA) RNA: UUUGAUUAAUAUGAUAUCGUUCUUUCUUGCAUUGUUAUUCUUUCUCGAUAUCAUAUUAAUCUUU | 1600 nM
17 | Ib_S2_P5E.1_K5.1_C5.1_H5.1_[A4C]_A5.1_[T5A]_F5.1_T5.1 (ssRNA) RNA: UUUGAUUAAUAUGAUAUCGUUCUUUCUUGUCAUAUUAUUCUUUCUCGAUAUCAUAUUAAUCUUU | 5.71 nM
18 | Ib_S2_P5E.1_K5.1_C5.1_H5.1_[A4T]_A5.1_[T6A]_F5.1_T5.1 (ssRNA) RNA: UUUGAUUAAUAUGAUAUCGUUCUUUCUUGUUUAAUUAUUCUUUCUCGAUAUCAUAUUAAUCUUU | 28.9 nM
19 | Ib_S2_P5E.1_K5.1_C5.1_H5.1_A5.1_[T5G]_[A7G]_F5.1_T5.1 (ssRNA) RNA: UUUGAUUAAUAUGAUAUCGUUCUUUCUUGUAGUGUUAUUCUUUCUCGAUAUCAUAUUAAUCUUU | 9.14 nM

Row | Binder | Kd
20 | Ic_S2_P5E.1_K5.1_C5.1_H5.1_A5.1_[T6G]_[A7C]_F5.1_T5.1 (ssRNA) RNA: UUUGAUUAAUAUGAUAUCGUUCUUUCUUGUAUGCUUAUUCUUUCUCGAUAUCAUAUUAAUCUUU | 6.06 nM
21 | Ib_S2_P5E.1_K5.1_C5.1_H5.1_[A4G]_A5.1_[A7T]_F5.1_T5.1 (ssRNA) RNA: UUUGAUUAAUAUGAUAUCGUUCUUUCUUGUGUUUUUAUUCUUUCUCGAUAUCAUAUUAAUCUUU | 10.3 nM
22 | Ib_S2_P5E.1_K5.1_C5.1_H5.1_A5.1_[T6G]_[A7T]_F5.1_T5.1 (ssRNA) RNA: UUUGAUUAAUAUGAUAUCGUUCUUUCUUGUAUGUUUAUUCUUUCUCGAUAUCAUAUUAAUCUUU | 6.35 nM
23 | Ia_S2_P5E.1_K5.1_C5.1_H5.1_[T1A]_A5.1_F5.1_T5.1 (ssRNA) RNA: UUUGAUUAAUAUGAUAUCGUUCUUUCUAGUAUUAUUAUUCUUUCUCGAUAUCAUAUUAAUCUUU | > 2300 nM
24 | Ib_S2_P5E.1_K5.1_C5.1_H5.1_A5.1_[T5C]_[A7C]_F5.1_T5.1 (ssRNA) RNA: UUUGAUUAAUAUGAUAUCGUUCUUUCUUGUACUCUUAUUCUUUCUCGAUAUCAUAUUAAUCUUU | 2.13 nM
25 | Ib_S2_P5E.1_K5.1_C5.1_H5.1_[A4G]_A5.1_[T6A]_F5.1_T5.1 (ssRNA) RNA: UUUGAUUAAUAUGAUAUCGUUCUUUCUUGUGUAAUUAUUCUUUCUCGAUAUCAUAUUAAUCUUU | 11.9 nM
26 | Ib_S2_P5E.1_K5.1_C5.1_H5.1_[A4C]_A5.1_[T5G]_F5.1_T5.1 (ssRNA) RNA: UUUGAUUAAUAUGAUAUCGUUCUUUCUUGUCGUAUUAUUCUUUCUCGAUAUCAUAUUAAUCUUU | 40 nM
27 | Ib_S2_P5E.1_K5.1_C5.1_H5.1_[A4C]_A5.1_[A7C]_F5.1_T5.1 (ssRNA) RNA: UUUGAUUAAUAUGAUAUCGUUCUUUCUUGUCUUCUUAUUCUUUCUCGAUAUCAUAUUAAUCUUU | 94.3 nM
28 | Ib_S2_P5E.1_K5.1_C5.1_H5.1_[A4C]_A5.1_[A7T]_F5.1_T5.1 (ssRNA) RNA: UUUGAUUAAUAUGAUAUCGUUCUUUCUUGUCUUUUUAUUCUUUCUCGAUAUCAUAUUAAUCUUU | 24.4 nM
29 | Ib_S2_P5E.1_K5.1_C5.1_H5.1_[A4G]_A5.1_[T6C]_F5.1_T5.1 (ssRNA) RNA: UUUGAUUAAUAUGAUAUCGUUCUUUCUUGUGUCAUUAUUCUUUCUCGAUAUCAUAUUAAUCUUU | 8.03 nM
30 | Ib_S2_P5E.1_K5.1_C5.1_H5.1_[T3C]_A5.1_[A7T]_F5.1_T5.1 (ssRNA) RNA: UUUGAUUAAUAUGAUAUCGUUCUUUCUUGCAUUUUUAUUCUUUCUCGAUAUCAUAUUAAUCUUU | 676 nM
31 | Ia_S2_P5E.1_K5.1_C5.1_H5.1_[G2A]_A5.1_F5.1_T5.1 (ssRNA) RNA: UUUGAUUAAUAUGAUAUCGUUCUUUCUUAUAUUAUUAUUCUUUCUCGAUAUCAUAUUAAUCUUU | 267 nM
32 | Ib_S2_P5E.1_K5.1_C5.1_H5.1_[T3C]_A5.1_[T5C]_F5.1_T5.1 (ssRNA) RNA: UUUGAUUAAUAUGAUAUCGUUCUUUCUUGCACUAUUAUUCUUUCUCGAUAUCAUAUUAAUCUUU | 276 nM
33 | Ib_S2_P5E.1_K5.1_C5.1_H5.1_A5.1_[T5G]_[A7C]_F5.1_T5.1 (ssRNA) RNA: UUUGAUUAAUAUGAUAUCGUUCUUUCUUGUAGUCUUAUUCUUUCUCGAUAUCAUAUUAAUCUUU | 9.58 nM
34 | ACAAACUGUCUACAACAAAC (ssRNA) [Ib_S3_P3E.1_K3.1_C3.1_H3.1_[A4C]_A3.1_F3.1_[T7C]_T3.1] | > 2300 nM
35 | ACAAACUGUCUAAAACAAAC (ssRNA) [Ib_S3_P3E.1_K3.1_C3.1_H3.1_[A4C]_A3.1_F3.1_[T7A]_T3.1] | > 2300 nM
36 | ACAAACAGUAUAAAACAAAC (ssRNA) [Ib_S3_P3E.1_K3.1_C3.1_H3.1_[T1A]_A3.1_F3.1_[T7A]_T3.1] | > 2300 nM
37 | ACAAACUGUCUAGAACAAAC (ssRNA) [Ib_S3_P3E.1_K3.1_C3.1_H3.1_[A4C]_A3.1_F3.1_[T7G]_T3.1] | > 2300 nM
